{
  "source": "paper PMC10303109",
  "about": "(Molecules, 2023)",
  "target": "receptor-binding domain (RBD) of the wild-type SARS-CoV-2 spike protein (319-541 aa) (SARS-CoV-2, UniProt P0DTC2)",
  "assay": "cryo-EM structure",
  "details": "both partners purified",
  "data": [
    {"binder": "Fab domain of the antibody REGN10987 (Fab, V domains shown) VH: QVQLVESGGGVVQPGRSLRLSCAASGFTFSNYAMYWVRQAPGKGLEWVAVISYDGSNKYYADSVKGRFTISRDNSKNTLYLQMNSLRTEDTAVYYCASGSDYGDYLLVYWGQGTLVTVSS VL: QSALTQPASVSGSPGQSITISCTGTSSDVGGYNYVSWYQQHPGKAPKLMIYDVSKRPSGVSNRFSGSKSGNTASLTISGLQSEDEADYYCNSLTSISTWVFGGGTKLTVL", "values": [
      {"measurement": "binding result", "result": "binds"}
    ]}
  ]
}
